Amyloid nucleation score data for 142 substances are collected here from the supplement of paper PMC12042874.

± gives the uncertainty stated by the source.

A short description of this data set: amyloid nucleation score (Sup35N fusion, yeast selection) (log enrichment); library NNK1; higher = more nucleation; inactive = no reads after selection. Summed up: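 Peptides of 20 random codons fused to Sup35N were expressed in psi-negative yeast, induced 24 hours with 100 μM copper sulfate, then grown 7 days at 30°C on medium lacking adenine and uracil. Input and output plasmid inserts were Illumina-sequenced. Nucleation score is the DiMSum log enrichment of output over input reads, centred on the mode score of non-aggregating sequences, excluding sequences with under 100 input reads. Random libraries had three technical output replicates.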

In turn, FVYDFNGKKFLGLSCALYII gave an amyloid nucleation score of 0.22 ± 1.2.
The substance HCGGNSRSVN gave an amyloid nucleation score of -1.11 ± 0.83.
With DSTILNSLSPVWPRSATGPS, the amyloid nucleation score is -0.529 ± 0.63.
Consider FCFLGRCEQHYYLEVHNGSE, for which the amyloid nucleation score is -0.1 ± 0.49.
With ARYPRGDGVGDMSSRLIVVY the figure was 1.26 ± 0.2; with DNNYSCILAASYLYGLKNYL, -0.12 ± 0.51; with RDRNNCYFSDDSNLREAT, -0.634 ± 0.62.
With PIFKMDCGDMVCT the figure was 0.121 ± 0.22; with DSLIDRSKVLKQTLYSTYWL, -0.12 ± 0.48.
Turning to CVNQWILVPGRAF, the amyloid nucleation score entry is “inactive”.
With AHSCSLV the figure was 0.61 ± 0.7; with WDEFGVDEWSYWLLLWYVAR, 0.799 ± 0.97.
Substance CAQRPAVRSF registered an amyloid nucleation score of -0.075 ± 0.98.
With NMLFLSRGDP, the amyloid nucleation score is -0.499 ± 1.9.
In the case of LRTISNVDLLSVS, the amyloid nucleation score came out at 0.138 ± 0.54.
Next, ARFCRGGRIVSLMRVLTQTR: -0.931 ± 1.3; FAQMWSLALRISVRNVISQF: 5.954 ± 0.047.
Turning to WGQLIRGRNRSSQGEEMRYL, the amyloid nucleation score is -0.148 ± 0.26.
In the case of MVVLRFAKCDSCMTSMAKIL, the amyloid nucleation score is -0.045 ± 0.3.
For TSGWRYGYSSYHYRTLNGFV, the amyloid nucleation score was -0.35 ± 0.47.
With CSQDYFIYYYPVLMLE the figure was -0.112 ± 0.46.
As for HLRRVMYLFAANCGPRPAND, the amyloid nucleation score was -0.69 ± 0.96.
Next, QELWHMYSIYYVFRTGDHIY: -0.163 ± 0.27; VFALMRISSNSMSKCQFVCD: -0.187 ± 0.39.
With VRGYGGVC, the amyloid nucleation score was -0.296 ± 0.3.
The substance KFVTVKTRQLKSAGASIVSG showed an amyloid nucleation score of -0.119 ± 0.69.
In the case of TDIHTVHRSNLVKVLRKGMN, the amyloid nucleation score was -0.411 ± 0.53.
With LRNDLVETSVLGA the figure was 1.47 ± 0.54; with NVHVFRNRSEITFKRASSWE, 1.08 ± 0.9; with SNWFCGFYDWISVLFNSLKL, 1.42 ± 0.65.
Take ICVRMSKFGCWTFSVKRGWQ: the amyloid nucleation score amounted to 0.335 ± 0.77.
With MYFIVCTSWGSVVDRGIH, the amyloid nucleation score entry is “inactive”.
RWSLAWKIMCEL gave an amyloid nucleation score of 0.055 ± 0.3.
LNTVSEITVVAKLNF: the amyloid nucleation score was 2.3 ± 0.12.
Consider NWRFGLYSHIGIWLMVKS, for which the amyloid nucleation score stood at 1.86 ± 0.38.
Take SIKCGVVHLNRMVRAQSKLC: the amyloid nucleation score amounted to 0.136 ± 1.5.
In the case of GWLTYSPRSALIDHERRSLQ, the amyloid nucleation score amounted to 0.879 ± 0.15.
Substance PLTLFYLLNTHAVEFSKVNC yielded an amyloid nucleation score of -0.674 ± 0.47.
In the case of TMTVSFPRLEKCTSK, the amyloid nucleation score came out at 0.169 ± 0.35.
EIHGCGCPLSKDGGGAFMWA yielded an amyloid nucleation score of 1.22 ± 0.63.
In the case of GHKNTRILQV, the amyloid nucleation score was -0.444 ± 1.9.
The substance RRYFSLYLAGSLELMFAWVM returned an amyloid nucleation score of -1.79 ± 2.7.
NSSYTCPNFRHTFCRYICYA returned an amyloid nucleation score of 0.533 ± 0.27.
VSLCAQRYVIMMSIVRTKSL displayed an amyloid nucleation score of 0.105 ± 0.22.
Substance SNKSSSDIDCVYLENCSTSG gave an amyloid nucleation score of 1.43 ± 0.36.
Next, SWGMVFLNSRVPWRVMFNSC: 0.154 ± 0.48; PTGVMM: -0.338 ± 0.51; RVSMVEVNLIYYMLPGHA: -0.125 ± 0.54.
For NYSEPDFKFHCVYGVYAMWG, the amyloid nucleation score stood at 0.403 ± 0.88.
As to WLPFLVFCRGESYYRLDRSS, the amyloid nucleation score amounted to 2.42 ± 0.091.
The substance AGMTFRFLHEVSSSQSN registered an amyloid nucleation score of 3.06 ± 0.13.
For the substance WGSCISFRNRGMCLILDSVC, the amyloid nucleation score stood at 0.037 ± 0.37.
NLVAT: the amyloid nucleation score was found to be 1.09 ± 0.67.
In the case of FEDGTCALR, the amyloid nucleation score was -0.059 ± 0.62.
YFCCALSNLLFRKSKHDRVR registered an amyloid nucleation score of 6.872 ± 0.068.
Next, ILLPWGMCWWMLCR: 0.036 ± 0.55.
In turn, VDRVGYIP came in with an amyloid nucleation score of -0.506 ± 0.47.
The substance GGGSMAGAERPGGLGQVRCN gave an amyloid nucleation score of 1.2 ± 0.6.
For the substance SNAIVTFIVGVAAPGTYYS, the amyloid nucleation score turned out to be 6.47 ± 0.062.
LCTLCIALPVMRVLSTVPVP showed an amyloid nucleation score of 0.267 ± 0.59.
Substance GARVTLYAVS had an amyloid nucleation score of -0.475 ± 0.36.
FNSYKGLIVQKYPSMTLN: the amyloid nucleation score came to 0.302 ± 1.
For the substance YSRGCTFYAKGELRDNGSYY, the amyloid nucleation score is -0.168 ± 0.48.
As for YNSEGDRLESNESWDWMARR, the amyloid nucleation score worked out at 0.511 ± 0.57.
VIMLVNDAFVGI yielded an amyloid nucleation score of -0.543 ± 0.26.
With EIQGPVRT the figure was -0.233 ± 0.59; with QIIEPRARENGRINMMMVGG, 0.481 ± 0.61; with RNSRAMIFEMHVVGLWWQSC, -0.538 ± 2.1.
The substance LYETMTCFWMRLWSFCGSPA registered an amyloid nucleation score of -0.033 ± 0.69.
With CIFHL, the amyloid nucleation score was found to be 0.303 ± 0.65.
ENFPPAQ: the amyloid nucleation score is -0.691 ± 0.5.
Next, GRLMTFSINRRNVWKCDGSR: -0.207 ± 1.1; PLYKAVLTDK: “inactive”.
SLYTKWKSILPNWVFVCIAL gave an amyloid nucleation score of -1.35 ± 0.38.
The substance IGYFWCCRLETANIVFNFVW displayed an amyloid nucleation score of -0.724 ± 1.3.
For MSDLLSVVN, the amyloid nucleation score worked out at 0.142 ± 0.81.
In turn, FLNMQYRGLQ had an amyloid nucleation score of 3.42 ± 0.11.
Consider GVGVCYFSC, for which the amyloid nucleation score was 2.2 ± 0.22.
Regarding DLADNVRKMGEFTSSVANIL, the amyloid nucleation score turned out to be 0.204 ± 0.4.
As for SSTAEDTMWARGSNKTLYQS, the amyloid nucleation score came out at 0.148 ± 0.44.
For YYVGSYTL, the amyloid nucleation score entry was “inactive”.
As to RLAYYFKGNANDFLAYLAKY, the amyloid nucleation score was -0.66 ± 0.76.
Substance ADEVMKRRQLLINIVEYFMK returned an amyloid nucleation score of 0.2 ± 0.38.
The substance VLRKTFGCFETMV displayed an amyloid nucleation score of 3.92 ± 0.073.
As to LSNALS, the amyloid nucleation score was 0.8 ± 0.81.
FFVVVRAHIDPR: the amyloid nucleation score was 0.188 ± 0.5.
Regarding WSGWAKPSHYVALGRVGSWE, the amyloid nucleation score is -0.075 ± 0.63.
For the substance NECLWSSFYLIICFLVCYYY, the amyloid nucleation score worked out at 0.278 ± 0.46.
Next, NAMVDGQGILIHSL: “inactive”; PFTYYFEVQLILRKT: 0.773 ± 0.79; SHNGCKIWGMDNLIVH: -0.616 ± 0.46.
GDYSCPLGNIINHDPMLFRW: the amyloid nucleation score was found to be 0.107 ± 0.23.
Regarding STIMMF, the amyloid nucleation score was 0.289 ± 0.52.
CLLVLLLGLRLPYRPRLVFV registered an amyloid nucleation score of 0.463 ± 0.79.
For SGAGVGSPVVKELSWFKLKV, the amyloid nucleation score was found to be 0.331 ± 0.77.
With IINKS the figure was -0.766 ± 2.4; with IEVGYLSTCEFLVRMRKL, 0.346 ± 0.51.
The substance WSTQSLCFGPT yielded an amyloid nucleation score of 0.012 ± 0.63.
Consider MSPLYNDFWYSCRIYKGEVM, for which the amyloid nucleation score is 0.606 ± 0.55.
With NGRFSADS, the amyloid nucleation score is -1.77 ± 1.6.
In turn, SVWMCM returned an amyloid nucleation score of 2.64 ± 0.1.
For QDTVFYMTDWGCGATKARDD, the amyloid nucleation score was 0.117 ± 0.94.
With CVSEDDMLLDYDPVCKFVWW the figure was 2.62 ± 0.15; with EKTYSCHECFFIWPRSY, -1.09 ± 0.75; with YYVVVFVANAVFPQYPDPRN, 7.21 ± 0.055.
In turn, CNMVHVVIERDGSGRRGCGL registered an amyloid nucleation score of 5.38 ± 0.055.
For QTNMMSTHHP, the amyloid nucleation score is 0.39 ± 0.41.
DPMHYL returned an amyloid nucleation score of 4.55 ± 0.098.
As for MIVYNMFGMNYYLFILDG, the amyloid nucleation score amounted to 7.508 ± 0.048.
On to QSFFHCVLYAIPHVRLS, for which the amyloid nucleation score was -1.07 ± 1.1.
In turn, AVLSPGWWESLYPRRVVHSC displayed an amyloid nucleation score of -0.354 ± 0.54.
In turn, SIDFV returned an amyloid nucleation score of 0.989 ± 0.88.
Next, TSGLENVSIVNGLPGLDSLV: 0.11 ± 0.99; MIRFKQT: -0.651 ± 0.45.
Regarding SIIYQVRRLCGSYVSILGSQ, the amyloid nucleation score came out at 0.251 ± 0.69.
The substance KWCDMRGYGQRFRCGRMVHV came in with an amyloid nucleation score of -0.727 ± 0.73.
Take CLTMWIV: the amyloid nucleation score is -0.285 ± 0.68.
Take VWCVVVCMSRQGKYTLCRWR: the amyloid nucleation score came out at 0.444 ± 0.97.
On to IVRVEWFSHYSFVFNGIDGG, for which the amyloid nucleation score stood at 0.679 ± 0.54.
With YSGVLFSTAVEYGGRGLVHE the entry was “inactive”; with IWMIAQDGFNFQLSNR, 0.282 ± 0.31.
TSNIRVLGHAMVNWVCWGRD showed an amyloid nucleation score of 3.18 ± 0.18.
Next, CICTRGMGSLSDCYELR: 0.689 ± 0.46; SSFSLGSTLF: 0.597 ± 0.52; GRMSRMILD: -0.407 ± 0.69.
QKIDNSIGQFYRKI registered an amyloid nucleation score of -1.15 ± 0.59.
FCTLALHNTI yielded an amyloid nucleation score of 1.24 ± 0.64.
MFGQWMAPHQTRFGSGQFGW showed an amyloid nucleation score of -0.038 ± 0.38.
As for WPRNRHGVVILLVVIANSCS, the amyloid nucleation score is -0.379 ± 0.76.
For GMSCWGLCSYNTRAYRNNPT, the amyloid nucleation score is -0.151 ± 0.63.
The substance HFTCRTLITGSYSVTTLNVS gave an amyloid nucleation score of 5.23 ± 0.061.
The substance EYGVGDKVIWDDMI gave an amyloid nucleation score of -0.151 ± 0.27.
As for YMQGDYM, the amyloid nucleation score result is “inactive”.
With ACDVNSCVHCMSTVKFFPRP the figure was 4.2 ± 0.11.
Substance HVLKGGRAAFVELRGKSHGL displayed an amyloid nucleation score of -0.081 ± 0.96.
On to SYVVYCHSAMRRKGSMGRYL, for which the amyloid nucleation score came out at 0.468 ± 0.37.
The substance YNNSLWPIRLVRSKQCLSWT showed an amyloid nucleation score of 0.215 ± 0.54.
Consider LCVCGPRSVVNAREDVEGLS, for which the amyloid nucleation score was determined as 0.478 ± 0.55.
With KLCRFCNRVCYCQ the figure was -0.691 ± 1; with LMSLIMI, 0.032 ± 0.44; with PTYIKLILTAHYLSEFRSNV, 1.02 ± 0.17.
For SLSMLTARGLILNMCNGMRF, the amyloid nucleation score was 1.52 ± 0.84.
